Results published in the DeepSol protein solubility set.

Experiment: soluble on expression in E. coli; label from the status in PepcDB or PDB records

Sequence | soluble on expression in E. coli
MQVTHKILKIPSKGYRKILSLLNEKGQARLIGGCVRDALLDLLHNKTNKEEFEGDTERRIAMYINVREDSSTGSTYKLPLEASYPRDRLEKGSCDIDIATNLTPSEVTNILSGAKIKTIPTGLKFGTITATLNNEKFEITTLRKDIECNGRHAKVIFTNDFAEDAARRDFTINALSYCPFKNEIYDYFEGFKDLQQEKVVFIGEALDRIKEDYLRILRFFRFSSYYANQLDDGNFKACKALKDGLKTLSRERIKSEMDKIIVSKRAAQILKAMFEIGILELIFSIQNYEIKFFEQANDFKLELVTRYALLLYCQKDLNLKVFLDWKFSKHEAMQILSITNFLNDAKFNMKKIWFEKKNYKEYLLAARIIGKLNHSQVKEFILKYDALLRPKFQVNGNDLLNMNIEKKKIGAKLEYLKNFWIEQDFKPSKLELLAKL | soluble
MGSDKIHHHHHHMEHLLHYVWKHKLFPLKILQTTKGLLVEIIDSGLQNPDAGPDFFNAKLKIDGTLWVGNIEIHTHSSDWYRHGHDHDKTYDSVILHVVAEADAEVTRSNGEQIPQLLLTCPENVQTHYHELCIADQYPACYSIIGSLSKLTIHSWLTALQTERLEQKARQIADRLERCDRHWEDAFFITLARNFGFGLNGDAFETWAGLLPFRAIDKHRNDLFQIEAFFFGQAGLLEEAFLKKEQEDEYSLRLRKEFRYLQRKFELNQVMDAGLWRFLRLRPENFPHIRLAQLAYLYQKVDKLFSQMMEAETLPEVRQLLSTHASAYWDNHYIFGRPSPQREKSMGEKSQDLIVINTVVPFLYAYGLHRTDERMCDRAGRFLEELKAENNHIIRSWGDAGLPVGSAADSQALIQLRKEYCDKRKCLFCRFGYEYLRKK | not soluble
MSLENAGSRPFLADFNGFSYLELKGLHTFERDLGEKMALEMVFLARGPSGLLLYNGQKTDGKGDFVSLALHNRHLEFRYDLGKGAAIIRSKEPIALGTWVRVFLERNGRKGALQVGDGPRVLGESPVPHTMLNLKEPLYVGGAPDFSKLARGAAVASGFDGAIQLVSLRGHQLLTQEHVLRAVDVAPFAGEGHHHHHH | soluble
MTCWLRGVTATFGRPAEWPGYLSHLCGRSAAMDLGPMRKSYRGDREAFEETHLTSLDPVKQFAAWFEEAVQCPDIGEANAMCLATCTRDGKPSARMLLLKGFGKDGFRFFTNFESRKGKELDSNPFASLVFYWEPLNRQVRVEGPVKKLPEEEAECYFHSRPKSSQIGAVVSHQSSVIPDREYLRKKNEELEQLYQDQEVPKPKSWGGYVLYPQVMEFWQGQTNRLHDRIVFRRGLPTGDSPLGPMTHRGEEDWLYERLAP | soluble
MGSDKIHHHHHHMRNINYFFAGSLLLLSGCQLIPNGDIPADDETNINPTLEVVSPTESDTREQVVEARDLWQRMQEGMHWEKPNEAYVAPFRQKLLANPRHLEQVFSRAEPFLYLIVDELERRGLPLELALLPAIESAFDADAISHASASGLWQLTPPMARYFGLKMNWWYDGRNDVVASTRAAADFLEYLYDRTGNNWHYAIAAYNSGEGRVLSAVRHNEKAGKPTDIWALKLPRETRNYVPNLLALADVVKHADKYGVSLPRIKNEPVVDVVEIGSQIELALAAELAGLSVSELKSLNPGFKQWATAPKGPHRLVVPVSNAPDFVVALAQTPQEQRVQWARYQIKRGDSLSVIARQFGTTPQVLKQVNQMKNNQLIAGKELVVPANGRTNASAQLASATPKQSYKVKSGDSLWKIAQAHGISVNDLKKWNSLGSKAIIRQGQLLTVWPGSKAVANTRSTTYQVKRGDSLSLIAQKFKVKISELMSWNKLSSSALQPGQTLTVMLQ | not soluble
SKILVFGHQNPDSDAIGSSMAYAYLKRQLGVDAQAVALGNPNEETAFVLDYFGIQAPPVVKSAQAEGAKQVILTDHNEFQQSIADIREVEVVEVVDHHRVANFETANPLYMRLEPVGSASSIVYRLYKENGVAIPKEIAGVMLSGLISDTLLLKSPTTHASDPAVAEDLAKIAGVDLQEYGLAMLKAGTNLASKTAAQLVDIDAKTFELNGSQVRVAQVNTVDINEVLERQNEIEEAIKASQAANGYSDFVLMITDILNSNSEILALGNNTDKVEAAFNFTLKNNHAFLAGAVSRKKQVVPQLTESFNG | soluble
MSVINCEEVKRDEFHTEKYYESYNIFGAHIVTEDEMRGVRFTVWAPHAKAMSVVGDFNEWDYEQHKMLQVTEEGIWSLFIPHIEEREIYKYAIETMAGDVIFKADPYAVYAEVRPNTASVVFDIKGYEWNDKNWSRKKKKKSVYKEAMTVYELHFGSWKKKEDGTLYSYREMAEELIPYVVEHQFTHIEIMPLVEHPYDRSWGYQGTGYYAATSRFGTPHDLMHFVDECHKYGIGVILDWVPGHFCKDAHGLYLFDGTPTYEYKDKDVQENPVWGTVNFDLGKREVRNFLISNALFWMRYFHIDGFRVDAVANMLYWNKEGQEQSNEHAVSFLRELNEAVFAEDEDFLMTAEDSTAWPLVTAPTYEGGLGFNYKWNMGWMNDVLKYMECAPEYRKYIHDKMTFSLLYAYSENFILPLSHDEVVHGKKSLLNKMPGDYWDKFAQLRLLYGYFFTHPGKKLLFMGGEFGQFDEWKDLEDLDWNLHDFEMHRYMHDYFKELIALYKRSKPLWQLDHSREGFQWIDANNNEQSIFSFIRQGDKQEDALVVVCNFTKATYENYKVGVPDFEYYNEVLNSDAEQYGGSGQVNKKRLKTFQEPYHNQTAHVEITIPPFGVSILRPVKTRKGSKKQDGSKTKVRSNVTSRGKR | not soluble
FPPRIVNPVVTPVTDTLTDTTDTKEYAVQTAIPDQRKVARPRADALRNRERIVLAAREMFVEHGPDVPLDDVARRAGVGNATVYRNFPDRDALVREVVCSVMDRTARAAELALAETGDAFEALERFVHASADERISALCPMVASTFDQHHPDLEAARGRVERLVAEVMDRAKAAGQLRGDVGVGDLMIAAAQLSRPPAGTGCVNADRFVHRHLQLFLDGLRAPARSVLPGAAVTLEDLRRPCDQ | not soluble
APTSSNDTGKTVVAVTACPTGIAHTYMAAEKLQETANKLGVRIKVETNGSRGVENRLTDKEIAEADGVIIAADVQVDMPRFDGKHLIAKPVAAGIHKPEELIKEAISGNAPVYKAESGSEATEST | not soluble
MDNKSEKVTVNKEELRKRLTPVQYQVTQEAGTERPFTGCYNKHYEKGVYQCIVCHQDLFSSETKYDSGCGWPAFNDVLDKGKVTLHRDASIPGGNILLLIAHPERIRTEVRCARCNAHMGHVFEDGPKPTRKRYCINSASIEFVNADPATSSPPVATPTAAPIAQQLEHHHHHH | soluble
MSLDLSLNNLYSISTVELIQAFANTPASVTSLNLSGNSLGFKNSDELVQILAAIPANVTSLNLSGNFLSYKSSDELVKTLAAIPFTITVLDLGWNDFSSKSSSEFKQAFSNLPASITSLNLRGNDLGIKSSDELIQILAAIPANVNSLNLRGNNLASKNCAELAKFLASIPASVTSLDLSANLLGLKLEHHHHHH | not soluble
DVRGMSQSVGAVVRGFATADPHVRIAGVILNKVGTDRHAEVCREAVEAVGVRVLGAIPRVDHAEVPSRHLGLITSVELDAAEDAVAAMATMVEEHVDLNALIELADCAYNGPAWDPALAMGMSDAEALDN | not soluble
MGRKIVFFDIDGTLLDEQKQLPLSTIEAVRRLKQSGVYVAIATGRAPFMFEHVRKQLGIDSFVSFNGQYVVFEGNVLYKQPLRREKVRALTEEAHKNGHPLVFMDAEKMRASIGDHPHIHVSMASLKFAHPPVDPLYYENKDIYQALLFCRAEEEEPYVRNYPEFRFVRWHDVSTDVLPAGGSKAEGIRMMIEKLGIDKKDVYAFGDGLNDIEMLSFVGTGVAMGNAHEEVKRVADFVTKPVDKEGIWYGLKQLQLIR | soluble
MTIEKPKISVAFIALGNFCRSPMAEAIFKHEVEKANLENRFNKIDSFGTSNYHVGESPDHRTVSICKQHGVKINHKGKQIKTKHFDEYDYIIGMDESNINNLKKIQPEGSKAKVCLFGDWNTNDGTVQTIIEDPWYGDIQDFEYNFKQITYFSKQFLKKEL | soluble
MGSDKIHHHHHHMDINADFSERVMVQSADLDWVASPMPGVDRRMLDRIGGEVARATSIVRYAPGSNFSAHTHTGGEEFVVLDGVFQDEHGDYPAGTYVRNPPTTSHTPGSDEGCTIFVKLWQFDMDDRTQFRRDMAAGGDRSVLHEDAFEIVTYHRLAPGAALEDPADGGAELLVLAGSLTEGGDTLITGGWLRLPESSTMHAVAGSEGATVWMKTGHLPHAKPPAVGRTR | not soluble
MGSDKIHHHHHHMTATTATAPTMRGGGRNELPPHLDDNLLTPRFYTTEFDKAAKTDLDIARKDFEAMFKEMEADYNLKHFDRKASLERLSELSPEDKAIYESYLVRSVVSEFSGFLLFKEISNRFKKAGRQELGQFFTFLARDEARHAGFLGRALKAEGINVDLPNLGNKRAATFFPLSWVLYSLYLSEKIGYWRYILINRHLNDNPEKVCAPLFDFFEPWCQDENRHGDCINLMMRCWPGMTKGFRGKLLSRFFLWSVFLTHTLTVCERGDFYGLLGIDPVLFDEEVIIQTNNTSRNAFPWVYNFDDGKFLEMRVQILKAFRNWRESSGLAKPVALSKFVSLILRQFALPMQKTNAVRYG | not soluble
MHEWGLSEELKIQTKQMIEIAEKELSIMRNAIDKEDECILCKMEDIHHMLANVQTLAATYYIQAYLSPYTESSSFITTAIQHLSARKHGALIVVERNETLEALIQTGTTLNAHLTAPLLESIFYPGNPLHDGAVLVKNNHIVSAANILPLTKSTEVDPELGTRHRAAIGLSEKSDALILVVSEETGRTSFALNGILYTISL | soluble
MVMLTKCLSSKDNIMSLTCMPALFLGHGSPMNVLDDNDYTRAWRRLGEALPRPQAIVVVSAHWYTRGTGVTAMERPQTLHDFGGFPQALYDTHYPAPGSPALAQRLVELLAPVPVALDKEAWGFDHGSWGVLIKMYPNADIPMVQLSVDSTKPAAWHFEVGRKLATLRDEGVMLVASGNVVHNLRTVRWHGDNIPYPWAASFNDFVKANLTWQGPVEQHPLVNYLQHEGGALSNPTPEHFLPLLYVLGAWDGKEPITIPVDGIEMGSISMLSVQVGLEHHHHHH | not soluble
MGSDKIHHHHHHMSDVLAYSVPAPAVVFPPMSPAPRVVPIAVQAPRKDALGCTACSMRSICMPQGLTPTELQRIEALICPSRTIKQGETIYRANDSFQSIYVVRVGSFKTVVMHRDGREQVTGFHLAGDSLGLDGVCSGHHSCDAIALEDSKMCIIPFHLLETMCREVKAVQQHVHRMMGGEIVRESSQMMLLGTMSAEQRVAT | not soluble
GMSEIDANYRALAQQVADKVAGRVIALDRLPESLLTAYRSLCDELLADRDGRFTRAWDQLPDSASSLFERCVFHGFYLANAWIQLSIVARDISELQDTDEAIAEQEYSGLYVRVAEAALKESVKKLKKARTDRSMYNSMREVMGI | soluble
MHHHHHHANASETNVGPMAPRVCVVGSVNMDLTFVVDALPRPGETVLAASLTRTPGGKGANQAVAAARAGAQVQFSGAFGDDPAAAQLRAHLRANAVGLDRTVTVPGPSGTAIIVVDASAENTVLVAPGANAHLTPVPSAVANCDVLLTQLEIPVATALAAARAAQSADAVVMVNASPAGQDRSSLQDLAAIADVVIANEHEANDWPSPPTHFVITLGVRGARYVGADGVFEVPAPTVTPVDTAGAGDVFAGVLAANWPRNPGSPAERLRALRRACAAGALATLVSGVGDCAPAAAAIDAALRANRHNGS | soluble
MAKTYGLIGLYSRIVNKIEDSKKYLSLAIEMNIQSGNHKSLFVNELRLAHTYQWETNYHKSNKLFKKLKEQSESDTEHSNYLDSVYQHYGKNLFDQSEYQLALKYVKKALRIRVEKGNKELIDSTEYAINICNEKIKQIKEMAGDPLEHHHHHH | not soluble
